What all share (assay): flow cytometry on cells
(In general: In flow cytometry, cells or beads pass a laser one at a time.)

Assay [1] has as its target CD45RABC ECD-GFP (extracellular domain and transmembrane region of CD45RABC, phosphatase domains replaced by GFP) (human).
Assay [2] has as its target CD45RO ECD-GFP (extracellular domain and transmembrane region of CD45RO, phosphatase domains replaced by GFP) (human).
In assay [3] the target is full-length human CD45RABC (human) (UniProt P08575).
Assay [4] concerns the target full-length human CD45RO (human) (UniProt P08575).

Broadly, the EC50 is the concentration that produces a half-maximal response. Higher therefore signals a need for much substance. For the substance “sec49K-His (recombinant N-terminal ectodomain of HAdV-D64 E3/49K, residues 20-353, from insect cells) (domain or fragment)”, the EC50 in assay [1] turned out to be 0.55 nM; in assay [2] it was 0.54 nM; in assay [3], 1.26 nM; in assay [4], 1.35 nM.

The values are drawn from publication doi:10.1101/2023.02.23.529489.
